{"source": "patent US20180043014A1", "key": {"[1]": {"target": "GPNMB (CG56972) on the surface of human tumor cell lines (human) (UniProt Q14956)", "sequence (Q14956 23-492)": "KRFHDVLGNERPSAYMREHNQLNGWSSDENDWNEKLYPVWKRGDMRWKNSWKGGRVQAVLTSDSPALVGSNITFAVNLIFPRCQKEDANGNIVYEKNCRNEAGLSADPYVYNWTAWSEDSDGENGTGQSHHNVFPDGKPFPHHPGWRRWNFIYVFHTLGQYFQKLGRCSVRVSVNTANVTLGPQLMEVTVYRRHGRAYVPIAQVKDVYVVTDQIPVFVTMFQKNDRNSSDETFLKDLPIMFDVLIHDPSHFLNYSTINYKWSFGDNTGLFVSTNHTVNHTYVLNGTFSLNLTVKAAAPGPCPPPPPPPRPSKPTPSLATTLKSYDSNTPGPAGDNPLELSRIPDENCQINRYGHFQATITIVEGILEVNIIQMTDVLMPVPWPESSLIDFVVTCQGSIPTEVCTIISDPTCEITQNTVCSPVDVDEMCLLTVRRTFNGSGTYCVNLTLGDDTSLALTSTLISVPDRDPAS", "assay": "flow cytometry, A375 cells, untreated, 12 h; background control"}, "[2]": {"target": "GPNMB (CG56972) on the surface of human tumor cell lines (human) (UniProt Q14956)", "assay": "flow cytometry, SF539 (printed SF549) cells, untreated, 12 h; background control"}, "[3]": {"target": "GPNMB (CG56972) on the surface of human tumor cell lines (human) (UniProt Q14956)", "assay": "flow cytometry, A375 cells, untreated, 48 h; background control"}, "[4]": {"target": "GPNMB (CG56972) on the surface of human tumor cell lines (human) (UniProt Q14956)", "assay": "flow cytometry, WM2664 cells, untreated; background control"}, "[5]": {"target": "GPNMB (CG56972) on the surface of human tumor cell lines (human) (UniProt Q14956)", "assay": "flow cytometry, SF539 (printed SF549) cells, untreated, 24 h; background control"}, "[6]": {"target": "GPNMB (CG56972) on the surface of human tumor cell lines (human) (UniProt Q14956)", "assay": "flow cytometry, SKMEL2 cells, untreated; background control"}, "[7]": {"target": "GPNMB (CG56972) on the surface of human tumor cell lines (human) (UniProt Q14956)", "assay": "flow cytometry, A375 cells, untreated, 24 h; background control"}, "[8]": {"target": "GPNMB (CG56972) on the surface of human tumor cell lines (human) (UniProt Q14956)", "assay": "flow cytometry, SF539 (printed SF549) cells, untreated, 48 h; background control"}, "[9]": {"target": "GPNMB (CG56972) on the surface of human tumor cell lines (human) (UniProt Q14956)", "assay": "flow cytometry on intact, non-permeabilized A375 melanoma cells, Treatment: None; primary antibody 10 ug/mL per methods, geometric mean fluorescence intensity"}}}
{"substance": "unrelated human IgG2 isotype control monoclonal antibody", "values": [{"measurement": "GeoMean", "setting": "[1]", "result": 7.4}, {"measurement": "GeoMean", "setting": "[2]", "result": 8.2}, {"measurement": "GeoMean", "setting": "[3]", "result": 7.8}, {"measurement": "GeoMean", "setting": "[4]", "result": 7.3}, {"measurement": "GeoMean", "setting": "[5]", "result": 8.7}, {"measurement": "GeoMean", "setting": "[6]", "result": 6.9}, {"measurement": "GeoMean", "setting": "[7]", "result": 7.5}, {"measurement": "GeoMean", "setting": "[8]", "result": 9.5}, {"measurement": "GeoMean", "setting": "[9]", "result": 8.4}]}
